This experiment has as its target keyhole limpet haemocyanin. Put plainly: ELISA, KLH coated, 100 nM antibody.

Take Adalimumab (antibody): the absorbance ratio to PBS blank is 1.03. Next, Ofatumumab (antibody): 1.15.

The record behind these values is patent US20240409635A1.
